Key:
[1] = system: HeLa Kyoto; test: solubility in G1/S (NP-40 vs SDS abundance) (log2 ratio); higher = more soluble; details: cell cycle stage: G1/S
[2] = system: HeLa Kyoto; test: thermal stability score vs G1/S (z-score of summed log2 fold changes over temperatures); higher = more thermally stable than in G1/S
[3] = system: HeLa Kyoto; test: solubility change mitosis vs G1/S (difference of NP-40 vs SDS log2 ratios) (log2 ratio difference); higher = more soluble in mitosis
[4] = system: HeLa Kyoto; test: melting temperature (median over replicates), in situ; higher = more thermally stable
[5] = cell cycle stage: early G1 (4.5 h after nocodazole release)
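Throughout, for melting temperature (median over replicates), in situ: HeLa Kyoto cells synchronized by double thymidine or nocodazole block, proteins quantified by TMT10plex mass spectrometry, three independent biological replicates.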
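Throughout, for solubility change mitosis vs G1/S (difference of NP-40 vs SDS log2 ratios): synchronized HeLa Kyoto cells (double thymidine block for G1/S, nocodazole release for mitosis), protein amounts in NP-40 versus SDS lysates quantified by mass spectrometry, three biological replicates.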
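Throughout, for solubility in G1/S (NP-40 vs SDS abundance): HeLa Kyoto cells arrested at G1/S by double thymidine block, proteins quantified by TMT10plex mass spectrometry in mild NP-40 versus SDS extracts, three biological replicates.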
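Throughout, for thermal stability score vs G1/S (z-score of summed log2 fold changes over temperatures): synchronized HeLa Kyoto cells, proteins quantified by TMT10plex mass spectrometry, three biological replicates, mitosis taken 0.5 h after nocodazole release, G1/S directly after double thymidine block.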

Sequence	solubility in G1/S (log2) [1]	thermal stability score [2, 5]	thermal stability score ([2]; cell cycle stage: mitosis)	solubility change mitosis (log2) [3]	melting temperature ([4]; cell cycle stage: G1/S) [°C]	melting temperature ([4]; cell cycle stage: mitosis) [°C]
MMFYRLLSIVGRQRASPGWQNWSSARNSTSAAEARSMALPTQAQVVICGGGITGTSVAYHLSKMGWKDIVLLEQGRLAAGSTRFCAGILSTARHLTIEQKMADYSNKLYYQLEQETGIQTGYTRTGSIFLAQTQDRLISLKRINAGLNVIGIPSEIISPKKVAELHHLLNVHDLVGAMHVPEDAVVSSADVALALASAASQNGVQIYDRTSVLHVMVKKGQVTGVETDKGQIECQYFVNCAGQWAYELGLSNEEPVSIPLHACEHFYLLTRPLETPLQSSTPTIVDADGRIYIRNWQGGILSGGFEKNPKPIFTEGKNQLEIQNLQEDWDHFEPLLSSLLRRMPELETLEIMKLVNCPETFTPDMRCIMGESPAVQGYFVLAGMNSAGLSFGGGAGKYLAEWMVHGYPSENVWELDLKRFGALQSSRTFLRHRVMEVMPLMYDLKVPRWDFQTGRQLRTSPLYDRLDAQGARWMEKHGFERPKYFVPPDKDLLALEQSKTFYKPDWFDIVESEVKCCKEAVCVIDMSSFTKFEITSTGDQALEVLQYLFSNDLDVPVGHIVHTGMLNEGGGYENDCSIARLNKRSFFMISPTDQQVHCWAWLKKHMPKDSNLLLEDVTWKYTALNLIGPRAVDVLSELSYAPMTPDHFPSLFCKEMSVGYANGIRVMSMTHTGEPGFMLYIPIEYALHVYNEVMSVGQKYGIRNAGYYALRSLRIEKFFAFWGQDINNLTTPLECGRESRVKLEKGMDFIGRDALLQQKQNGVYKRLTMFILDDHDSDLDLWPWWGEPIYRNGQYVGKTTSSAYSYSLERHVCLGFVHNFSEDTGEEQVVTADFINRGEYEIDIAGYRFQAKAKLYPVASLFTQKRRKDDMELSDLHGK [PDPR]	-0.175	-1.29	-1.55	-0.203	53.6	53.7
MAGQGLPLHVATLLTGLLECLGFAGVLFGWPSLVFVFKNEDYFKDLCGPDAGPIGNATGQADCKAQDERFSLIFTLGSFMNNFMTFPTGYIFDRFKTTVARLIAIFFYTTATLIIAFTSAGSAVLLFLAMPMLTIGGILFLITNLQIGNLFGQHRSTIITLYNGAFDSSSAVFLIIKLLYEKGISLRASFIFISVCSTWHVARTFLLMPRGHIPYPLPPNYSYGLCPGNGTTKEEKETAEHENRELQSKEFLSAKEETPGAGQKQELRSFWSYAFSRRFAWHLVWLSVIQLWHYLFIGTLNSLLTNMAGGDMARVSTYTNAFAFTQFGVLCAPWNGLLMDRLKQKYQKEARKTGSSTLAVALCSTVPSLALTSLLCLGFALCASVPILPLQYLTFILQVISRSFLYGSNAAFLTLAFPSEHFGKLFGLVMALSAVVSLLQFPIFTLIKGSLQNDPFYVNVMFMLAILLTFFHPFLVYRECRTWKESPSAIA [SLC43A3]	0.205	-0.857	-2.36	-0.114	58.3	58.2
MSNYSVSLVGPAPWGFRLQGGKDFNMPLTISSLKDGGKAAQANVRIGDVVLSIDGINAQGMTHLEAQNKIKGCTGSLNMTLQRASAAPKPEPVPVQKGEPKEVVKPVPITSPAVSKVTSTNNMAYNKAPRPFGSVSSPKVTSIPSPSSAFTPAHATTSSHASPSPVAAVTPPLFAASGLHANANLSADQSPSALSAGKTAVNVPRQPTVTSVCSETSQELAEGQRRGSQGDSKQQNGPPRKHIVERYTEFYHVPTHSDASKKRLIEDTEDWRPRTGTTQSRSFRILAQITGTEHLKESEADNTKKANNSQEPSPQLASSVASTRSMPESLDSPTSGRPGVTSLTAAAAFKPVGSTGVIKSPSWQRPNQGVPSTGRISNSATYSGSVAPANSALGQTQPSDQDTLVQRAEHIPAGKRTPMCAHCNQVIRGPFLVALGKSWHPEEFNCAHCKNTMAYIGFVEEKGALYCELCYEKFFAPECGRCQRKILGEVISALKQTWHVSCFVCVACGKPIRNNVFHLEDGEPYCETDYYALFGTICHGCEFPIEAGDMFLEALGYTWHDTCFVCSVCCESLEGQTFFSKKDKPLCKKHAHSVNF [PDLIM5]	0.0686	-0.121	0.334	0.0095	52.1	52.6
MAARSWQDELAQQAEEGSARLREMLSVGLGFLRTELGLDLGLEPKRYPGWVILVGTGALGLLLLFLLGYGWAAACAGARKKRRSPPRKREEAAAVPAAAPDDLALLKNLRSEEQKKKNRKKLSEKPKPNGRTVEVAEGEAVRTPQSVTAKQPPEIDKKNEKSKKNKKKSKSDAKAVQNSSRHDGKEVDEGAWETKISHREKRQQRKRDKVLTDSGSLDSTIPGIENTITVTTEQLTTASFPVGSKKNKGDSHLNVQVSNFKSGKGDSTLQVSSGLNENLTVNGGGWNEKSVKLSSQISAGEEKWNSVSPASAGKRKTEPSAWSQDTGDANTNGKDWGRSWSDRSIFSGIGSTAEPVSQSTTSDYQWDVSRNQPYIDDEWSGLNGLSSADPNSDWNAPAEEWGNWVDEERASLLKSQEPIPDDQKVSDDDKEKGEGALPTGKSKKKKKKKKKQGEDNSTAQDTEELEKEIREDLPVNTSKTRPKQEKAFSLKTISTSDPAEVLVKNSQPIKTLPPATSTEPSVILSKSDSDKSSSQVPPILQETDKSKSNTKQNSVPPSQTKSETSWESPKQIKKKKKARRET [MTDH]	-0.39	-2.14	-6.31	0.414	59.1	58.3
MASNDYTQQATQSYGAYPTQPGQGYSQQSSQPYGQQSYSGYSQSTDTSGYGQSSYSSYGQSQNTGYGTQSTPQGYGSTGGYGSSQSSQSSYGQQSSYPGYGQQPAPSSTSGSYGSSSQSSSYGQPQSGSYSQQPSYGGQQQSYGQQQSYNPPQGYGQQNQYNSSSGGGGGGGGGGNYGQDQSSMSSGGGSGGGYGNQDQSGGGGSGGYGQQDRGGRGRGGSGGGGGGGGGGYNRSSGGYEPRGRGGGRGGRGGMGGSDRGGFNKFGGPRDQGSRHDSEQDNSDNNTIFVQGLGENVTIESVADYFKQIGIIKTNKKTGQPMINLYTDRETGKLKGEATVSFDDPPSAKAAIDWFDGKEFSGNPIKVSFATRRADFNRGGGNGRGGRGRGGPMGRGGYGGGGSGGGGRGGFPSGGGGGGGQQRAGDWKCPNPTCENMNFSWRNECNQCKAPKPDGPGGGPGGSHMGGNYGDDRRGGRGGYDRGGYRGRGGDRGGFRGGRGGGDRGGFGPGKMDSRGEHRQDRRERPY [FUS]	-0.295	0.878	-3.18	0.333	56.1	54.8
MEIIRSNFKSNLHKVYQAIEEADFFAIDGEFSGISDGPSVSALTNGFDTPEERYQKLKKHSMDFLLFQFGLCTFKYDYTDSKYITKSFNFYVFPKPFNRSSPDVKFVCQSSSIDFLASQGFDFNKVFRNGIPYLNQEEERQLREQYDEKRSQANGAGALSYVSPNTSKCPVTIPEDQKKFIDQVVEKIEDLLQSEENKNLDLEPCTGFQRKLIYQTLSWKYPKGIHVETLETEKKERYIVISKVDEEERKRREQQKHAKEQEELNDAVGFSRVIHAIANSGKLVIGHNMLLDVMHTVHQFYCPLPADLSEFKEMTTCVFPRLLDTKLMASTQPFKDIINNTSLAELEKRLKETPFNPPKVESAEGFPSYDTASEQLHEAGYDAYITGLCFISMANYLGSFLSPPKIHVSARSKLIEPFFNKLFLMRVMDIPYLNLEGPDLQPKRDHVLHVTFPKEWKTSDLYQLFSAFGNIQISWIDDTSAFVSLSQPEQVKIAVNTSKYAESYRIQTYAEYMGRKQEEKQIKRKWTEDSWKEADSKRLNPQCIPYTLQNHYYRNNSFTAPSTVGKRNLSPSQEEAGLEDGVSGEISDTELEQTDSCAEPLSEGRKKAKKLKRMKKELSPAGSISKNSPATLFEVPDTW [PARN]	-0.144	1.32	2.89	-0.0471	48.7	50.7
MAAFSKYLTARNSSLAGAAFLLLCLLHKRRRALGLHGKKSGKPPLQNNEKEGKKERAVVDKVFFSRLIQILKIMVPRTFCKETGYLVLIAVMLVSRTYCDVWMIQNGTLIESGIIGRSRKDFKRYLLNFIAAMPLISLVNNFLKYGLNELKLCFRVRLTKYLYEEYLQAFTYYKMGNLDNRIANPDQLLTQDVEKFCNSVVDLYSNLSKPFLDIVLYIFKLTSAIGAQGPASMMAYLVVSGLFLTRLRRPIGKMTITEQKYEGEYRYVNSRLITNSEEIAFYNGNKREKQTVHSVFRKLVEHLHNFILFRFSMGFIDSIIAKYLATVVGYLVVSRPFLDLSHPRHLKSTHSELLEDYYQSGRMLLRMSQALGRIVLAGREMTRLAGFTARITELMQVLKDLNHGKYERTMVSQQEKGIEGVQVIPLIPGAGEIIIADNIIKFDHVPLATPNGDVLIRDLNFEVRSGANVLICGPNGCGKSSLFRVLGELWPLFGGRLTKPERGKLFYVPQRPYMTLGTLRDQVIYPDGREDQKRKGISDLVLKEYLDNVQLGHILEREGGWDSVQDWMDVLSGGEKQRMAMARLFYHKPQFAILDECTSAVSVDVEGYIYSHCRKVGITLFTVSHRKSLWKHHEYYLHMDGRGNYEFKQITEDTVEFGS [ABCD3]	-0.213	1.37	0.619	-0.103	52.5	52.3
MADSASESDTDGAGGNSSSSAAMQSSCSSTSGGGGGGGGGGGGGKSGGIVISPFRLEELTNRLASLQQENKVLKIELETYKLKCKALQEENRDLRKASVTIQARAEQEEEFISNTLFKKIQALQKEKETLAVNYEKEEEFLTNELSRKLMQLQHEKAELEQHLEQEQEFQVNKLMKKIKKLENDTISKQLTLEQLRREKIDLENTLEQEQEALVNRLWKRMDKLEAEKRILQEKLDQPVSAPPSPRDISMEIDSPENMMRHIRFLKNEVERLKKQLRAAQLQHSEKMAQYLEEERHMREENLRLQRKLQREMERREALCRQLSESESSLEMDDERYFNEMSAQGLRPRTVSSPIPYTPSPSSSRPISPGLSYASHTVGFTPPTSLTRAGMSYYNSPGLHVQHMGTSHGITRPSPRRSNSPDKFKRPTPPPSPNTQTPVQPPPPPPPPPMQPTVPSAATSQPTPSQHSAHPSSQP [CCDC6]	0.826	-2.05	0.137	-0.174	53.5	53.6
MALKQEMAKSLLKTASLSGRTKLLHQTGLSLYSTSHGFYEEEVKKTLQQFPGGSIDLQKEDNGIGILTLNNPSRMNAFSGVMMLQLLEKVIELENWTEGKGLIVRGAKNTFSSGSDLNAVKSLGTPEDGMAVCMFMQNTLTRFMRLPLISVALVQGWALGGGAEFTTACDFRLMTPESKIRFVHKEMGIIPSWGGTTRLVEIIGSRQALKVLSGALKLDSKNALNIGMVEEVLQSSDETKSLEEAQEWLKQFIQGPPEVIRALKKSVCSGRELYLEEALQNERDLLGTVWGGPANLEAIAKKGKFNK [ECHDC1]	0.284	-1.01	-1.18	-0.0468	56.5	58.1
MSQWYELQQLDSKFLEQVHQLYDDSFPMEIRQYLAQWLEKQDWEHAANDVSFATIRFHDLLSQLDDQYSRFSLENNFLLQHNIRKSKRNLQDNFQEDPIQMSMIIYSCLKEERKILENAQRFNQAQSGNIQSTVMLDKQKELDSKVRNVKDKVMCIEHEIKSLEDLQDEYDFKCKTLQNREHETNGVAKSDQKQEQLLLKKMYLMLDNKRKEVVHKIIELLNVTELTQNALINDELVEWKRRQQSACIGGPPNACLDQLQNWFTIVAESLQQVRQQLKKLEELEQKYTYEHDPITKNKQVLWDRTFSLFQQLIQSSFVVERQPCMPTHPQRPLVLKTGVQFTVKLRLLVKLQELNYNLKVKVLFDKDVNERNTVKGFRKFNILGTHTKVMNMEESTNGSLAAEFRHLQLKEQKNAGTRTNEGPLIVTEELHSLSFETQLCQPGLVIDLETTSLPVVVISNVSQLPSGWASILWYNMLVAEPRNLSFFLTPPCARWAQLSEVLSWQFSSVTKRGLNVDQLNMLGEKLLGPNASPDGLIPWTRFCKENINDKNFPFWLWIESILELIKKHLLPLWNDGCIMGFISKERERALLKDQQPGTFLLRFSESSREGAITFTWVERSQNGGEPDFHAVEPYTKKELSAVTFPDIIRNYKVMAAENIPENPLKYLYPNIDKDHAFGKYYSRPKEAPEPMELDGPKGTGYIKTELISVSEVHPSRLQTTDNLLPMSPEEFDEVSRIVGSVEFDSMMNTV [STAT1]	0.104	1.15	3.11	-0.17	47.7	48.5

— the supplement of paper PMC5998384
